In patent publication US11549123B2, “Plant EPSP synthases and methods of use” (PIONEER HI-BRED INTERNATIONAL, INC., priority 2015, dated 2023):

What was measured:
Format in all cases: biochemical, Zea mays
[1] = substrate: C=C(OP(=O)(O)O)C(=O)O; experiment: Substrate saturation kinetic analysis with glyphosate, Zm-P107S; conditions: other: substrate saturation
[2] = substrate: C=C(OP(=O)(O)O)C(=O)O; experiment: Substrate saturation analysis with glyphosate (Example 8), Zm-H6; conditions: other: substrate saturation, pH 7.0
Text: Generally, (kcat/KM)*KI is obtained by performing substrate saturation analysis in the absence and presence of inhibitor. However, that analysis takes longer. […] To validate the method, (kcat/KM)*KI was quantified using both methods—traditional (saturation) and the instant method (rapid), for variants of maize 5-enolpyruvylshikimate-3-phosphate synthase (EPSPS) and its competitive inhibitor, glyphosate.
The amino acid sequence of mature Zea mays EPSPS was obtained from GenBank entry CAA44974.1 (SEQ ID NO:2). A nucleotide sequence was created to add an N-terminal methionine and to optimize codon usage for expression in E. coli. The synthesized gene was cloned into an expression vector that provides a T7 promoter driving expression of the protein and a 10× N-terminal histidine tag. Variants selected for this study include native maize EPSPS and variants generated by a gene shuffling cascade described herein. […] Protein concentration was determined by absorbance at 280 nm using an extinction coefficient of 0.676 OD/mg/m L. The proteins were normalized to 0.5 mg/mL for assay.
EPSPS activity was determined by quantifying the phosphate generated by the reaction. […] The absorbance change that occurs was monitored continuously at 360 nm, where the extinction is 11,200 M-1 cm-1, with a Spectramax plate reader (Molecular Devices). […]

[3] = substrate: C=C(OP(=O)(O)O)C(=O)O; experiment: Substrate saturation kinetic analysis with glyphosate, H6-H54E; conditions: other: substrate saturation
[4] = substrate: C=C(OP(=O)(O)O)C(=O)O; experiment: Substrate saturation kinetic analysis with glyphosate, H6-A36G; conditions: other: substrate saturation
[5] = substrate: C=C(OP(=O)(O)O)C(=O)O; experiment: Substrate saturation kinetic analysis with glyphosate, H6-V87T; conditions: other: substrate saturation
[6] = substrate: C=C(OP(=O)(O)O)C(=O)O; experiment: Substrate saturation kinetic analysis with glyphosate, H6-A76V; conditions: other: substrate saturation
[7] = substrate: C=C(OP(=O)(O)O)C(=O)O; experiment: Substrate saturation kinetic analysis with glyphosate, H6-K246G; conditions: other: substrate saturation
[8] = substrate: C=C(OP(=O)(O)O)C(=O)O; experiment: Substrate saturation kinetic analysis with glyphosate, H6-A69V; conditions: other: substrate saturation
[9] = substrate: C=C(OP(=O)(O)O)C(=O)O; experiment: Substrate saturation kinetic analysis with glyphosate, H6-D196V; conditions: other: substrate saturation

B1: Zea mays EPSPS variant Zm-P107S (Zea mays; P106S) (protein)
chain: MAGAEEIVLQPIKEISGTVKLPGSKSLSNRILLLAALSEGTTVVDNLLNSEDVHYMLGALRTLGLSVEADKAAKRAVVVGCGGKFPVEDAKEEVQLFLGNAGTAMRSLTAAVTAAGGNATYVLDGVPRMRERPIGDLVVGLKQLGADVDCFLGTDCPPVRVNGIGGLPGGKVKLSGSISSQYLSALLMAAPLALGDVEIEIIDKLISIPYVEMTLRLMERFGVKAEHSDSWDRFYIKGGQKYKSPKNAYVEGDASSASYFLAGAAITGGTVTVEGCGTTSLQGDVKFAEVLEMMGAKVTWTETSVTVTGPPREPFGRKHLKAIDVNMNKMPDVAMTLAVVALFADGPTAIRDVASWRVKETERMVAIRTELTKLGASVEEGPDYCIITPPEKLNVTAIDTYDDHRMAMAFSLAACAEVPVTIRDPGCTRKTFPDYFDVLSTFVKN
notes: native maize plus P107S; E. coli BL21(DE3), Ni-NTA purified
[1]
  Km: 14.8 µM
  kcat: 29.97 s⁻¹

B2: Zea mays EPSPS variant Zm-H6 (868-H6) (Zea mays; A1R/A3W/A415G/A71Q/D401G/E301S/E390G/G101A/I207L/K83R/L97C/T278A/T360S/T440Q/V437R) (protein)
chain: MRGWEEIVLQPIKEISGTVKLPGSKSLSNRILLLAALSEGTTVVDNLLNSEDVHYMLGALRTLGLSVEADKQAKRAVVVGCGGRFPVEDAKEEVQLFCGNAATAMRPLTAAVTAAGGNATYVLDGVPRMRERPIGDLVVGLKQLGADVDCFLGTDCPPVRVNGIGGLPGGKVKLSGSISSQYLSALLMAAPLALGDVEIEIIDKLISLPYVEMTLRLMERFGVKAEHSDSWDRFYIKGGQKYKSPKNAYVEGDASSASYFLAGAAITGGTVTVEGCGTASLQGDVKFAEVLEMMGAKVTWTSTSVTVTGPPREPFGRKHLKAIDVNMNKMPDVAMTLAVVALFADGPTAIRDVASWRVKESERMVAIRTELTKLGASVEEGPDYCIITPPGKLNVTAIDTYGDHRMAMAFSLAACGEVPVTIRDPGCTRKTFPDYFDRLSQFVKN
[2]
  Km: 20.6 µM
  kcat: 3.3 s⁻¹

B3: Zea mays EPSPS variant Zm-H6 (868-H6) with H54E (H6-H54E) (Zea mays; A1R/A3W/A415G/A71Q/D401G/E301S/E390G/G101A/H53E/I207L/K83R/L97C/T278A/T360S/T440Q/V437R) (protein)
chain: MRGWEEIVLQPIKEISGTVKLPGSKSLSNRILLLAALSEGTTVVDNLLNSEDVEYMLGALRTLGLSVEADKQAKRAVVVGCGGRFPVEDAKEEVQLFCGNAATAMRPLTAAVTAAGGNATYVLDGVPRMRERPIGDLVVGLKQLGADVDCFLGTDCPPVRVNGIGGLPGGKVKLSGSISSQYLSALLMAAPLALGDVEIEIIDKLISLPYVEMTLRLMERFGVKAEHSDSWDRFYIKGGQKYKSPKNAYVEGDASSASYFLAGAAITGGTVTVEGCGTASLQGDVKFAEVLEMMGAKVTWTSTSVTVTGPPREPFGRKHLKAIDVNMNKMPDVAMTLAVVALFADGPTAIRDVASWRVKESERMVAIRTELTKLGASVEEGPDYCIITPPGKLNVTAIDTYGDHRMAMAFSLAACGEVPVTIRDPGCTRKTFPDYFDRLSQFVKN
notes: 868-H6 plus H54E; E. coli BL21(DE3), Ni-NTA purified
[3]
  Km: 27.9 µM
  kcat: 4.13 s⁻¹

B4: Zea mays EPSPS variant Zm-H6 (868-H6) with A36G (H6-A36G) (Zea mays; A1R/A35G/A3W/A415G/A71Q/D401G/E301S/E390G/G101A/I207L/K83R/L97C/T278A/T360S/T440Q/V437R) (protein)
chain: MRGWEEIVLQPIKEISGTVKLPGSKSLSNRILLLAGLSEGTTVVDNLLNSEDVHYMLGALRTLGLSVEADKQAKRAVVVGCGGRFPVEDAKEEVQLFCGNAATAMRPLTAAVTAAGGNATYVLDGVPRMRERPIGDLVVGLKQLGADVDCFLGTDCPPVRVNGIGGLPGGKVKLSGSISSQYLSALLMAAPLALGDVEIEIIDKLISLPYVEMTLRLMERFGVKAEHSDSWDRFYIKGGQKYKSPKNAYVEGDASSASYFLAGAAITGGTVTVEGCGTASLQGDVKFAEVLEMMGAKVTWTSTSVTVTGPPREPFGRKHLKAIDVNMNKMPDVAMTLAVVALFADGPTAIRDVASWRVKESERMVAIRTELTKLGASVEEGPDYCIITPPGKLNVTAIDTYGDHRMAMAFSLAACGEVPVTIRDPGCTRKTFPDYFDRLSQFVKN
[4]
  Km: 30.8 µM
  kcat: 4.1 s⁻¹

B5: Zea mays EPSPS variant Zm-H6 (868-H6) with V87T (H6-V87T) (Zea mays; A1R/A3W/A415G/A71Q/D401G/E301S/E390G/G101A/I207L/K83R/L97C/T278A/T360S/T440Q/V437R/V86T) (protein)
chain: MRGWEEIVLQPIKEISGTVKLPGSKSLSNRILLLAALSEGTTVVDNLLNSEDVHYMLGALRTLGLSVEADKQAKRAVVVGCGGRFPTEDAKEEVQLFCGNAATAMRPLTAAVTAAGGNATYVLDGVPRMRERPIGDLVVGLKQLGADVDCFLGTDCPPVRVNGIGGLPGGKVKLSGSISSQYLSALLMAAPLALGDVEIEIIDKLISLPYVEMTLRLMERFGVKAEHSDSWDRFYIKGGQKYKSPKNAYVEGDASSASYFLAGAAITGGTVTVEGCGTASLQGDVKFAEVLEMMGAKVTWTSTSVTVTGPPREPFGRKHLKAIDVNMNKMPDVAMTLAVVALFADGPTAIRDVASWRVKESERMVAIRTELTKLGASVEEGPDYCIITPPGKLNVTAIDTYGDHRMAMAFSLAACGEVPVTIRDPGCTRKTFPDYFDRLSQFVKN
notes: 868-H6 plus V87T; E. coli BL21(DE3), Ni-NTA purified
[5]
  Km: 27.5 µM
  kcat: 4.32 s⁻¹

B6: Zea mays EPSPS variant Zm-H6 (868-H6) with A76V (H6-A76V) (Zea mays; A1R/A3W/A415G/A71Q/A75V/D401G/E301S/E390G/G101A/I207L/K83R/L97C/T278A/T360S/T440Q/V437R) (protein)
chain: MRGWEEIVLQPIKEISGTVKLPGSKSLSNRILLLAALSEGTTVVDNLLNSEDVHYMLGALRTLGLSVEADKQAKRVVVVGCGGRFPVEDAKEEVQLFCGNAATAMRPLTAAVTAAGGNATYVLDGVPRMRERPIGDLVVGLKQLGADVDCFLGTDCPPVRVNGIGGLPGGKVKLSGSISSQYLSALLMAAPLALGDVEIEIIDKLISLPYVEMTLRLMERFGVKAEHSDSWDRFYIKGGQKYKSPKNAYVEGDASSASYFLAGAAITGGTVTVEGCGTASLQGDVKFAEVLEMMGAKVTWTSTSVTVTGPPREPFGRKHLKAIDVNMNKMPDVAMTLAVVALFADGPTAIRDVASWRVKESERMVAIRTELTKLGASVEEGPDYCIITPPGKLNVTAIDTYGDHRMAMAFSLAACGEVPVTIRDPGCTRKTFPDYFDRLSQFVKN
[6]
  Km: 45.2 µM
  kcat: 3.48 s⁻¹

B7: Zea mays EPSPS variant Zm-H6 (868-H6) with K246G (H6-K246G) (Zea mays; A1R/A3W/A415G/A71Q/D401G/E301S/E390G/G101A/I207L/K245G/K83R/L97C/T278A/T360S/T440Q/V437R) (protein)
chain: MRGWEEIVLQPIKEISGTVKLPGSKSLSNRILLLAALSEGTTVVDNLLNSEDVHYMLGALRTLGLSVEADKQAKRAVVVGCGGRFPVEDAKEEVQLFCGNAATAMRPLTAAVTAAGGNATYVLDGVPRMRERPIGDLVVGLKQLGADVDCFLGTDCPPVRVNGIGGLPGGKVKLSGSISSQYLSALLMAAPLALGDVEIEIIDKLISLPYVEMTLRLMERFGVKAEHSDSWDRFYIKGGQKYKSPGNAYVEGDASSASYFLAGAAITGGTVTVEGCGTASLQGDVKFAEVLEMMGAKVTWTSTSVTVTGPPREPFGRKHLKAIDVNMNKMPDVAMTLAVVALFADGPTAIRDVASWRVKESERMVAIRTELTKLGASVEEGPDYCIITPPGKLNVTAIDTYGDHRMAMAFSLAACGEVPVTIRDPGCTRKTFPDYFDRLSQFVKN
notes: 868-H6 plus K246G; E. coli BL21(DE3), Ni-NTA purified
[7]
  Km: 24.0 µM
  kcat: 3.5 s⁻¹

B8: Zea mays EPSPS variant Zm-H6 (868-H6) with A69V (H6-A69V) (Zea mays; A1R/A3W/A415G/A68V/A71Q/D401G/E301S/E390G/G101A/I207L/K83R/L97C/T278A/T360S/T440Q/V437R) (protein)
chain: MRGWEEIVLQPIKEISGTVKLPGSKSLSNRILLLAALSEGTTVVDNLLNSEDVHYMLGALRTLGLSVEVDKQAKRAVVVGCGGRFPVEDAKEEVQLFCGNAATAMRPLTAAVTAAGGNATYVLDGVPRMRERPIGDLVVGLKQLGADVDCFLGTDCPPVRVNGIGGLPGGKVKLSGSISSQYLSALLMAAPLALGDVEIEIIDKLISLPYVEMTLRLMERFGVKAEHSDSWDRFYIKGGQKYKSPKNAYVEGDASSASYFLAGAAITGGTVTVEGCGTASLQGDVKFAEVLEMMGAKVTWTSTSVTVTGPPREPFGRKHLKAIDVNMNKMPDVAMTLAVVALFADGPTAIRDVASWRVKESERMVAIRTELTKLGASVEEGPDYCIITPPGKLNVTAIDTYGDHRMAMAFSLAACGEVPVTIRDPGCTRKTFPDYFDRLSQFVKN
[8]
  Km: 21.1 µM
  kcat: 2.68 s⁻¹

B9: Zea mays EPSPS variant Zm-H6 (868-H6) with D196V (H6-D196V) (Zea mays; A1R/A3W/A415G/A71Q/D195V/D401G/E301S/E390G/G101A/I207L/K83R/L97C/T278A/T360S/T440Q/V437R) (protein)
chain: MRGWEEIVLQPIKEISGTVKLPGSKSLSNRILLLAALSEGTTVVDNLLNSEDVHYMLGALRTLGLSVEADKQAKRAVVVGCGGRFPVEDAKEEVQLFCGNAATAMRPLTAAVTAAGGNATYVLDGVPRMRERPIGDLVVGLKQLGADVDCFLGTDCPPVRVNGIGGLPGGKVKLSGSISSQYLSALLMAAPLALGVVEIEIIDKLISLPYVEMTLRLMERFGVKAEHSDSWDRFYIKGGQKYKSPKNAYVEGDASSASYFLAGAAITGGTVTVEGCGTASLQGDVKFAEVLEMMGAKVTWTSTSVTVTGPPREPFGRKHLKAIDVNMNKMPDVAMTLAVVALFADGPTAIRDVASWRVKESERMVAIRTELTKLGASVEEGPDYCIITPPGKLNVTAIDTYGDHRMAMAFSLAACGEVPVTIRDPGCTRKTFPDYFDRLSQFVKN
notes: shuffled variant 868-H6 plus D196V; E. coli BL21(DE3), Ni-NTA purified
[9]
  Km: 61.8 µM
  kcat: 2.73 s⁻¹
